Assay results as given in PMC4105405, “VapC from the Leptospiral VapBC Toxin-Antitoxin Module Displays Ribonuclease Activity on the Initiator tRNA” (PLoS ONE, 2014).

Target: the molecule itself
Assay: non-reducing SDS-PAGE

B1: VapC toxin from Leptospira interrogans serovar Copenhageni (LIC12660), 6xHis-tagged, refolded by hig (enzyme)
chain: MYLLDTNICIFLIKKKNATLLENLKKKLNKDLFVSSLTVAELEFGIQKSEFKEKNKVALIEFLTIFNILSFSDKDAESYGIIRADLERKGNVIGSIDMLLAAQAIANNYIFVTNNTKEFKRIKALKIENWTQ
notes: also called pressurized VapC
  stoichiometry N: 2

B2: VapC toxin from Leptospira interrogans serovar Copenhageni (LIC12660), non-tagged, co-expressed with VapB (enzyme)
chain: B1 chain
notes: Translated from the bicistronic mRNA under a single promoter; also called non-tagged VapC
  stoichiometry N: 2
